Source: paper PMC9371724 (2022)

Biological target: T1, HA69 peptide on HLA DQB1*06:02/DQA1*01:02 (DQ0602) (human)
T1 peptide: AMERNAGSGIIISDT
Test: activation reporter or marker

B1: …-1 (TCR)
alpha TRAV19 TRAJ45 CDR3: CALSEDAGGGADGLTF
beta TRBV12-3 TRBJ2-5 CDR3: CASRRHQQETQYF
- binding result: no recognition

B2: …-1 (TCR)
alpha TRAV38-2/DV8 TRAJ39 CDR3: CAYRSFNNAGNMLTF
beta TRBV28 TRBJ1-6 CDR3: CASTETGSNSPLHF
- binding result: no recognition

B3: …-1 (TCR)
alpha TRAV2 TRAJ20 CDR3: CAVEDKHDYKLSF
beta TRBV9 TRBJ1-2 CDR3: CASSFKEGSNYGYTF
- binding result: no recognition

B4: …-1 (TCR)
alpha TRAV12-3 TRAJ39 CDR3: CATSYNNAGNMLTF
beta TRBV4-2 TRBJ2-5 CDR3: CASSQGTSGEETQYF
- binding result: no recognition

B5: …-1 (TCR)
alpha TRAV10 TRAJ41 CDR3: CVVSEGGYALNF
beta TRBV5-1 TRBJ1-5 CDR3: CASSDGTDSNQPQHF
- binding result: no recognition

B6: …-1 (TCR)
alpha TRAV27 TRAJ26 CDR3: CKYGQNFVF
beta TRBV19 TRBJ2-3 CDR3: CASSRPGLNTDTQYF
- binding result: no recognition

B7: …-1 (TCR)
alpha TRAV21 TRAJ46 CDR3: CAVRPKEGSGDKLTF
beta TRBV2 TRBJ2-2 CDR3: CASSESGRGPGELFF
- binding result: no recognition

B8: …-1 (TCR)
alpha TRAV5 TRAJ8 CDR3: CAEMDTGFQKLVF
beta TRBV6-5 TRBJ1-1 CDR3: CASSGQGSTEAFF
- binding result: no recognition

B9: …-1 (TCR)
alpha TRAV9-2 TRAJ8 CDR3: CALSEGSTGFQKLVF
beta TRBV7-8 TRBJ1-3 CDR3: CASSVAGNGNTIYF
- binding result: no recognition

B10: …-1 (TCR)
alpha TRAV2 TRAJ40 CDR3: CAVEDRDSGTYKYIF
beta TRBV18 TRBJ2-1 CDR3: CASSPSRGAPEYNEQFF
- binding result: no recognition

B11: …-1 (TCR)
alpha TRAV8-4 TRAJ9 CDR3: CAVNGGFKTIF
beta TRBV6-1 TRBJ2-1 CDR3: CASRDRNQYNEQFF
- binding result: no recognition

B12: …-1 (TCR)
alpha TRAV20 TRAJ52 CDR3: CAVQAPGTSYGKLTF
beta TRBV24-1 TRBJ2-3 CDR3: CATSVGTSGYTQYF
- binding result: no recognition

B13: …-1 (TCR)
alpha TRAV26-2 TRAJ41 CDR3: CILRDSNSGYALNF
beta TRBV7-8 TRBJ1-5 CDR3: CASSSGTHRSPQHF
- binding result: no recognition

B14: …-1 (TCR)
alpha TRAV8-6 TRAJ42 CDR3: CAVMGYGGSQGNLIF
beta TRBV4-3 TRBJ2-1 CDR3: CASSQELGVYNEQFF
- binding result: no recognition

B15: …-1 (TCR)
alpha TRAV38-2/DV8 TRAJ39 CDR3: CAYRSANNAGNMLTF
beta TRBV6-5 TRBJ1-5 CDR3: CASRTSGGNQPQHF
- binding result: no recognition

B16: …-1 (TCR)
alpha TRAV10 TRAJ26 CDR3: CVVSPTGGQNFVF
beta TRBV6-2 TRBJ2-6 CDR3: CASSYWGLGANVLTF
- binding result: no recognition

B17: …-1 (TCR)
alpha TRAV29/DV5 TRAJ48 CDR3: CAAKGGGNEKLTF
beta TRBV12-3 TRBJ1-3 CDR3: CASTPRVLQFSGNTIYF
- binding result: no recognition

B18: …-1 (TCR)
alpha TRAV9-2 TRAJ4 CDR3: CALPSLSGGYNKLIF
beta TRBV7-8 TRBJ1-3 CDR3: CASSLAGNGNTIYF
- binding result: no recognition

B19: …-1 (TCR)
alpha TRAV17 TRAJ54 CDR3: CATDAAGAQKLVF
beta TRBV19 TRBJ2-1 CDR3: CASSILAGVYNEQFF
- binding result: no recognition

B20: …-1 (TCR)
alpha TRAV21 TRAJ30 CDR3: CAVGDDKIIF
beta TRBV12-3 TRBJ1-1 CDR3: CASSSRSGLKAFF
- binding result: no recognition

B21: TCR CVVRGQAGTALIF / CASSGHWNTEAFF (TCR)
alpha TRAV10 TRAJ15 CDR3: CVVRGQAGTALIF
beta TRBV19 TRBJ1-1 CDR3: CASSGHWNTEAFF
- binding result: recognises

B22: TCR CAGSSANQAGTALIF / CSARGGQGAPSPLHF (TCR)
alpha TRAV35 TRAJ15 CDR3: CAGSSANQAGTALIF
beta TRBV20-1 TRBJ1-6 CDR3: CSARGGQGAPSPLHF
- binding result: recognises

B23: TCR CAANLDNFNKFYF / CATSRGIQPNEKLFF (TCR)
alpha TRAV25 TRAJ21 CDR3: CAANLDNFNKFYF
beta TRBV15 TRBJ1-4 CDR3: CATSRGIQPNEKLFF
- binding result: recognises

B24: TCR CALSEAFPPLYNFNKFYF / CASSLFATSGKDTQYF (TCR)
alpha TRAV19 TRAJ21 CDR3: CALSEAFPPLYNFNKFYF
beta TRBV5-6 TRBJ2-3 CDR3: CASSLFATSGKDTQYF
- binding result: recognises

B25: TCR CALGPGDNQGGKLIF / CASSLAQAPAGETQYF (TCR)
alpha TRAV9-2 TRAJ23 CDR3: CALGPGDNQGGKLIF
beta TRBV11-1 TRBJ2-5 CDR3: CASSLAQAPAGETQYF
- binding result: recognises

B26: TCR CIVRVGTNQGGKLIF / CASSMGLALETQYF (TCR)
alpha TRAV26-1 TRAJ23 CDR3: CIVRVGTNQGGKLIF
beta TRBV19 TRBJ2-5 CDR3: CASSMGLALETQYF
- binding result: recognises

B27: TCR CAVSEGRSNQGGKLIF / CASSSQGRENEQYF (TCR)
alpha TRAV8-6 TRAJ23 CDR3: CAVSEGRSNQGGKLIF
beta TRBV19 TRBJ2-7 CDR3: CASSSQGRENEQYF
- binding result: recognises

B28: TCR512 (TCR)
alpha TRAV13-1 TRAJ23 CDR3: CAAPYNQGGKLIF
beta TRBV19 TRBJ1-5 CDR3: CASSIVRGLYSNQPQHF
- binding result: recognises

B29: TCR CIVRVLTNQGGKLIF / CSAGSGLGGYNEQFF (TCR)
alpha TRAV26-1 TRAJ23 CDR3: CIVRVLTNQGGKLIF
beta TRBV20-1 TRBJ2-1 CDR3: CSAGSGLGGYNEQFF
- binding result: recognises

B30: TCR CAASMSTNQGGKLIF / CSADRYAYEQYF (TCR)
alpha TRAV13-1 TRAJ23 CDR3: CAASMSTNQGGKLIF
beta TRBV20-1 TRBJ2-7 CDR3: CSADRYAYEQYF
- binding result: recognises

B31: TCR CILRGGTNQGGKLIF / CSAEGQGAGNTIYF (TCR)
alpha TRAV26-2 TRAJ23 CDR3: CILRGGTNQGGKLIF
beta TRBV20-1 TRBJ1-3 CDR3: CSAEGQGAGNTIYF
- binding result: recognises

B32: TCR821 (TCR)
alpha TRAV26-1 TRAJ23 CDR3: CIVMLTTNQGGKLIF
beta TRBV19 TRBJ2-4 CDR3: CASSPGLAGGGSIQYF
- binding result: recognises

B33: TCR CAVGATDSWGKFQF / CASSIDATGHSNQPQHF (TCR)
alpha TRAV8-3 TRAJ24 CDR3: CAVGATDSWGKFQF
beta TRBV19 TRBJ1-5 CDR3: CASSIDATGHSNQPQHF
- binding result: recognises

B34: TCR100 (TCR)
alpha TRAV8-3 TRAJ24 CDR3: CAVVTTDSWGKFQF
beta TRBV19 TRBJ1-5 CDR3: CASSDSPTGHGNQPQHF
- binding result: recognises

B35: TCR CATDGGGIGAGSYQLTF / CATSRGGSPPYEQYF (TCR)
alpha TRAV17 TRAJ28 CDR3: CATDGGGIGAGSYQLTF
beta TRBV15 TRBJ2-7 CDR3: CATSRGGSPPYEQYF
- binding result: recognises

B36: TCR CAVSDRDSGNTPLVF / CASSQGDVNYGYTF (TCR)
alpha TRAV8-6 TRAJ29 CDR3: CAVSDRDSGNTPLVF
beta TRBV4-3 TRBJ1-2 CDR3: CASSQGDVNYGYTF
- binding result: recognises

B37: TCR CAVQELARLMF / CASSVEGYSSPLHF (TCR)
alpha TRAV20 TRAJ31 CDR3: CAVQELARLMF
beta TRBV6-1 TRBJ1-6 CDR3: CASSVEGYSSPLHF
- binding result: recognises

B38: TCR CIVRVGTNMDSNYQLIW / CASSKSYNEQFF (TCR)
alpha TRAV26-1 TRAJ33 CDR3: CIVRVGTNMDSNYQLIW
beta TRBV19 TRBJ2-1 CDR3: CASSKSYNEQFF
- binding result: recognises

B39: TCR806 (TCR)
alpha TRAV26-1 TRAJ33 CDR3: CIVRGGTNMDSNYQLIW
beta TRBV19 TRBJ1-6 CDR3: CASTGQGNSPLHF
- binding result: recognises

B40: TCR CATVGYNTDKLIF / CASSQGQAATNEKLFF (TCR)
alpha TRAV17 TRAJ34 CDR3: CATVGYNTDKLIF
beta TRBV4-3 TRBJ1-4 CDR3: CASSQGQAATNEKLFF
- binding result: recognises

B41: TCR CATDSYNTDKLIF / CASSQGLGPTNYGYTF (TCR)
alpha TRAV17 TRAJ34 CDR3: CATDSYNTDKLIF
beta TRBV4-3 TRBJ1-2 CDR3: CASSQGLGPTNYGYTF
- binding result: recognises

B42: TCR CATGSYNTDKLIF / CASSPGLAGGTGELFF (TCR)
alpha TRAV17 TRAJ34 CDR3: CATGSYNTDKLIF
beta TRBV4-3 TRBJ2-2 CDR3: CASSPGLAGGTGELFF
- binding result: recognises

B43: TCR CATVAYNTDKLIF / CASSPGRTGGTYYGYTF (TCR)
alpha TRAV17 TRAJ34 CDR3: CATVAYNTDKLIF
beta TRBV4-3 TRBJ1-2 CDR3: CASSPGRTGGTYYGYTF
- binding result: recognises

B44: TCR CATDSYNTDKLIF / CASSQGAGAQTYYGYTF (TCR)
alpha TRAV17 TRAJ34 CDR3: CATDSYNTDKLIF
beta TRBV4-3 TRBJ1-2 CDR3: CASSQGAGAQTYYGYTF
- binding result: recognises

B45: TCR CATDAYNTDKLIF / CASSQGAVPAGNTIYF (TCR)
alpha TRAV17 TRAJ34 CDR3: CATDAYNTDKLIF
beta TRBV4-3 TRBJ1-3 CDR3: CASSQGAVPAGNTIYF
- binding result: recognises

B46: TCR766 (TCR)
alpha TRAV17 TRAJ34 CDR3: CATASYNTDKLIF
beta TRBV4-3 TRBJ1-5 CDR3: CASSQGATGGSNQPQHF
- binding result: recognises

B47: TCR819 (TCR)
alpha TRAV17 TRAJ34 CDR3: CATAAYNTDKLIF
beta TRBV4-3 TRBJ1-2 CDR3: CASSQAMTGGSDYGYTF
- binding result: recognises

B48: TCR867 (TCR)
alpha TRAV17 TRAJ34 CDR3: CATDAYNTDKLIF
beta TRBV4-3 TRBJ1-3 CDR3: CASSQGRTASGNTIYF
- binding result: recognises

B49: TCR872 (TCR)
alpha TRAV17 TRAJ34 CDR3: CATVGYNTDKLIF
beta TRBV4-3 TRBJ1-4 CDR3: CASSQGLGPTNEKLFF
- binding result: recognises

B50: TCR CAAFENVLHC / CASSERPYPGETQYF (TCR)
alpha TRAV13-1 TRAJ35 CDR3: CAAFENVLHC
beta TRBV6-1 TRBJ2-5 CDR3: CASSERPYPGETQYF
- binding result: recognises

B51: TCR CAAPGANNLFF / CASSGTGGQGYNEQFF (TCR)
alpha TRAV13-1 TRAJ36 CDR3: CAAPGANNLFF
beta TRBV2 TRBJ2-1 CDR3: CASSGTGGQGYNEQFF
- binding result: recognises

B52: TCR CAAPGANNLFF / CASSQPHRTSVTGELFF (TCR)
alpha TRAV13-1 TRAJ36 CDR3: CAAPGANNLFF
beta TRBV4-2 TRBJ2-2 CDR3: CASSQPHRTSVTGELFF
- binding result: recognises

B53: TCR CAVSRAGANNLFF / CASSQGLGPGLFNQPQHF (TCR)
alpha TRAV21 TRAJ36 CDR3: CAVSRAGANNLFF
beta TRBV4-3 TRBJ1-5 CDR3: CASSQGLGPGLFNQPQHF
- binding result: recognises

B54: TCR CIVSPHGSGNTGKLIF / CASSIGARGQLFF (TCR)
alpha TRAV26-1 TRAJ37 CDR3: CIVSPHGSGNTGKLIF
beta TRBV19 TRBJ1-4 CDR3: CASSIGARGQLFF
- binding result: recognises

B55: TCR839 (TCR)
alpha TRAV12-2 TRAJ37 CDR3: CAVNPPWSNTGKLIF
beta TRBV19 TRBJ2-5 CDR3: CASTRGVGTSGAKETQYF
- binding result: recognises

B56: TCR CVHNAGNMLTF / CASSFQGLSTDTQYF (TCR)
alpha TRAV25 TRAJ39 CDR3: CVHNAGNMLTF
beta TRBV12-3 TRBJ2-3 CDR3: CASSFQGLSTDTQYF
- binding result: recognises

B57: TCR CIASGTYKYIF / CASSKGETGTQWSYEQYF (TCR)
alpha TRAV26-1 TRAJ40 CDR3: CIASGTYKYIF
beta TRBV4-2 TRBJ2-7 CDR3: CASSKGETGTQWSYEQYF
- binding result: recognises

B58: TCR538 (TCR)
alpha TRAV4 TRAJ42 CDR3: CLVGAPSLYGGSQGNLIF
beta TRBV7-8 TRBJ2-1 CDR3: CASNPAGAVSYNEQFF
- binding result: recognises

B59: TCR CASAYTGTASKLTF / CASSIDLGGRADGGYTF (TCR)
alpha TRAV17 TRAJ44 CDR3: CASAYTGTASKLTF
beta TRBV19 TRBJ1-2 CDR3: CASSIDLGGRADGGYTF
- binding result: recognises
